# Measurements reported in patent US20110237779A1 (Genentech, published 2011).
# Target: T1, human tissue factor (human, UniProt P13726 33-251, limits assumed)
# T1 construct: construct not described; also called TF
# Assay: phage ELISA, solution competition: Fab-phage incubated with serially diluted TF, unbound phage captured on TF-coated wells; IC50 used as affinity estimate
row,Binder,IC50 [nM]
1,"D3 library clone, CDR-L1 KGQRVLNSWLS (Fab, V domains shown, Changes against the D3 direct graft (Kabat): VL A25G, S26Q, D28V, I29L, K30N, Y32W; copies: 1 + 1) VH: EVQLVESGGGLVQPGGSLRLSCAASGFNIKDYYMHWVRQAPGKGLEWVGWIDPENGNTIYDPKFQDRFTISADTSKNTAYLQMNSLRAEDTAVYYCARDTAAYFDYWGQGTLVTVSS VL: DIQMTQSPSSLSASVGDRVTITCKGQRVLNSWLSWYQQKPGKAPKLLIYYATSLADGVPSRFSGSGSGTDFTLTISSLQPEDFATYYCLQHGESPFTFGQGTKVEIK",21
2,"D3 library clone, CDR-L2 YAPGLAD (Fab, V domains shown, Changes against the D3 direct graft (Kabat): VL T52P, S53G; Siblings 2; copies: 1 + 1) VH: EVQLVESGGGLVQPGGSLRLSCAASGFNIKDYYMHWVRQAPGKGLEWVGWIDPENGNTIYDPKFQDRFTISADTSKNTAYLQMNSLRAEDTAVYYCARDTAAYFDYWGQGTLVTVSS VL: DIQMTQSPSSLSASVGDRVTITCKASRDIKSYLSWYQQKPGKAPKLLIYYAPGLADGVPSRFSGSGSGTDFTLTISSLQPEDFATYYCLQHGESPFTFGQGTKVEIK",8
3,"D3 library clone, CDR-L2 YETGEPE (Fab, V domains shown, Changes against the D3 direct graft (Kabat): VL A51E, S53G, L54E, A55P, D56E; copies: 1 + 1) VH: EVQLVESGGGLVQPGGSLRLSCAASGFNIKDYYMHWVRQAPGKGLEWVGWIDPENGNTIYDPKFQDRFTISADTSKNTAYLQMNSLRAEDTAVYYCARDTAAYFDYWGQGTLVTVSS VL: DIQMTQSPSSLSASVGDRVTITCKASRDIKSYLSWYQQKPGKAPKLLIYYETGEPEGVPSRFSGSGSGTDFTLTISSLQPEDFATYYCLQHGESPFTFGQGTKVEIK",11
4,"D3 library clone, CDR-L2 YEGSGKR (Fab, V domains shown, Changes against the D3 direct graft (Kabat): VL A51E, T52G, L54G, A55K, D56R; Siblings 8; copies: 1 + 1) VH: EVQLVESGGGLVQPGGSLRLSCAASGFNIKDYYMHWVRQAPGKGLEWVGWIDPENGNTIYDPKFQDRFTISADTSKNTAYLQMNSLRAEDTAVYYCARDTAAYFDYWGQGTLVTVSS VL: DIQMTQSPSSLSASVGDRVTITCKASRDIKSYLSWYQQKPGKAPKLLIYYEGSGKRGVPSRFSGSGSGTDFTLTISSLQPEDFATYYCLQHGESPFTFGQGTKVEIK",12
5,"D3 library clone, CDR-L1 KGSGYIKHFVS (Fab, V domains shown, Changes against the D3 direct graft (Kabat): VL A25G, R27G, D28Y, S31H, Y32F, L33V; Siblings 2; copies: 1 + 1) VH: EVQLVESGGGLVQPGGSLRLSCAASGFNIKDYYMHWVRQAPGKGLEWVGWIDPENGNTIYDPKFQDRFTISADTSKNTAYLQMNSLRAEDTAVYYCARDTAAYFDYWGQGTLVTVSS VL: DIQMTQSPSSLSASVGDRVTITCKGSGYIKHFVSWYQQKPGKAPKLLIYYATSLADGVPSRFSGSGSGTDFTLTISSLQPEDFATYYCLQHGESPFTFGQGTKVEIK",9
6,"D3 library clone, CDR-L2 YAPSLAD (Fab, V domains shown, Change against the D3 direct graft (Kabat): VL T52P; copies: 1 + 1) VH: EVQLVESGGGLVQPGGSLRLSCAASGFNIKDYYMHWVRQAPGKGLEWVGWIDPENGNTIYDPKFQDRFTISADTSKNTAYLQMNSLRAEDTAVYYCARDTAAYFDYWGQGTLVTVSS VL: DIQMTQSPSSLSASVGDRVTITCKASRDIKSYLSWYQQKPGKAPKLLIYYAPSLADGVPSRFSGSGSGTDFTLTISSLQPEDFATYYCLQHGESPFTFGQGTKVEIK",4
7,"D3 library clone, CDR-L1 NASLVINRWLS (Fab, V domains shown, Changes against the D3 direct graft (Kabat): VL K24N, R27L, D28V, K30N, S31R, Y32W; copies: 1 + 1) VH: EVQLVESGGGLVQPGGSLRLSCAASGFNIKDYYMHWVRQAPGKGLEWVGWIDPENGNTIYDPKFQDRFTISADTSKNTAYLQMNSLRAEDTAVYYCARDTAAYFDYWGQGTLVTVSS VL: DIQMTQSPSSLSASVGDRVTITCNASLVINRWLSWYQQKPGKAPKLLIYYATSLADGVPSRFSGSGSGTDFTLTISSLQPEDFATYYCLQHGESPFTFGQGTKVEIK",16
8,"D3 library clone, CDR-L2 YETGWAE (Fab, V domains shown, Changes against the D3 direct graft (Kabat): VL A51E, S53G, L54W, D56E; copies: 1 + 1) VH: EVQLVESGGGLVQPGGSLRLSCAASGFNIKDYYMHWVRQAPGKGLEWVGWIDPENGNTIYDPKFQDRFTISADTSKNTAYLQMNSLRAEDTAVYYCARDTAAYFDYWGQGTLVTVSS VL: DIQMTQSPSSLSASVGDRVTITCKASRDIKSYLSWYQQKPGKAPKLLIYYETGWAEGVPSRFSGSGSGTDFTLTISSLQPEDFATYYCLQHGESPFTFGQGTKVEIK",10
9,"D3 library clone, CDR-L1 KGSRDTTSFVS (Fab, V domains shown, Changes against the D3 direct graft (Kabat): VL A25G, I29T, K30T, Y32F, L33V; copies: 1 + 1) VH: EVQLVESGGGLVQPGGSLRLSCAASGFNIKDYYMHWVRQAPGKGLEWVGWIDPENGNTIYDPKFQDRFTISADTSKNTAYLQMNSLRAEDTAVYYCARDTAAYFDYWGQGTLVTVSS VL: DIQMTQSPSSLSASVGDRVTITCKGSRDTTSFVSWYQQKPGKAPKLLIYYATSLADGVPSRFSGSGSGTDFTLTISSLQPEDFATYYCLQHGESPFTFGQGTKVEIK",19
10,"D3 library clone, CDR-L2 YTTGPVD (Fab, V domains shown, Changes against the D3 direct graft (Kabat): VL A51T, S53G, L54P, A55V; copies: 1 + 1) VH: EVQLVESGGGLVQPGGSLRLSCAASGFNIKDYYMHWVRQAPGKGLEWVGWIDPENGNTIYDPKFQDRFTISADTSKNTAYLQMNSLRAEDTAVYYCARDTAAYFDYWGQGTLVTVSS VL: DIQMTQSPSSLSASVGDRVTITCKASRDIKSYLSWYQQKPGKAPKLLIYYTTGPVDGVPSRFSGSGSGTDFTLTISSLQPEDFATYYCLQHGESPFTFGQGTKVEIK",21
11,"D3 library clone, CDR-L2 YAPGPAD (Fab, V domains shown, Changes against the D3 direct graft (Kabat): VL T52P, S53G, L54P; copies: 1 + 1) VH: EVQLVESGGGLVQPGGSLRLSCAASGFNIKDYYMHWVRQAPGKGLEWVGWIDPENGNTIYDPKFQDRFTISADTSKNTAYLQMNSLRAEDTAVYYCARDTAAYFDYWGQGTLVTVSS VL: DIQMTQSPSSLSASVGDRVTITCKASRDIKSYLSWYQQKPGKAPKLLIYYAPGPADGVPSRFSGSGSGTDFTLTISSLQPEDFATYYCLQHGESPFTFGQGTKVEIK",10
12,"D3 library clone, CDR-L2 YVPWTAD (Fab, V domains shown, Changes against the D3 direct graft (Kabat): VL A51V, T52P, S53W, L54T; copies: 1 + 1) VH: EVQLVESGGGLVQPGGSLRLSCAASGFNIKDYYMHWVRQAPGKGLEWVGWIDPENGNTIYDPKFQDRFTISADTSKNTAYLQMNSLRAEDTAVYYCARDTAAYFDYWGQGTLVTVSS VL: DIQMTQSPSSLSASVGDRVTITCKASRDIKSYLSWYQQKPGKAPKLLIYYVPWTADGVPSRFSGSGSGTDFTLTISSLQPEDFATYYCLQHGESPFTFGQGTKVEIK",10
13,"D3 library clone, CDR-L2 RGTSLFE, VL K24E, D28V, Y32F (Fab, V domains shown, Changes against the D3 direct graft (Kabat): VL K24E, D28V, Y32F, Y50R, A51G, A55F, D56E; copies: 1 + 1) VH: EVQLVESGGGLVQPGGSLRLSCAASGFNIKDYYMHWVRQAPGKGLEWVGWIDPENGNTIYDPKFQDRFTISADTSKNTAYLQMNSLRAEDTAVYYCARDTAAYFDYWGQGTLVTVSS VL: DIQMTQSPSSLSASVGDRVTITCEASRVIKSFLSWYQQKPGKAPKLLIYRGTSLFEGVPSRFSGSGSGTDFTLTISSLQPEDFATYYCLQHGESPFTFGQGTKVEIK",10
14,"D3 library clone, CDR-L2 YAPRRAR (Fab, V domains shown, Changes against the D3 direct graft (Kabat): VL T52P, S53R, L54R, D56R; Siblings 2; copies: 1 + 1) VH: EVQLVESGGGLVQPGGSLRLSCAASGFNIKDYYMHWVRQAPGKGLEWVGWIDPENGNTIYDPKFQDRFTISADTSKNTAYLQMNSLRAEDTAVYYCARDTAAYFDYWGQGTLVTVSS VL: DIQMTQSPSSLSASVGDRVTITCKASRDIKSYLSWYQQKPGKAPKLLIYYAPRRARGVPSRFSGSGSGTDFTLTISSLQPEDFATYYCLQHGESPFTFGQGTKVEIK",11
15,"D3 library clone, CDR-L2 YATGETD (Fab, V domains shown, Changes against the D3 direct graft (Kabat): VL S53G, L54E, A55T; Siblings 2; copies: 1 + 1) VH: EVQLVESGGGLVQPGGSLRLSCAASGFNIKDYYMHWVRQAPGKGLEWVGWIDPENGNTIYDPKFQDRFTISADTSKNTAYLQMNSLRAEDTAVYYCARDTAAYFDYWGQGTLVTVSS VL: DIQMTQSPSSLSASVGDRVTITCKASRDIKSYLSWYQQKPGKAPKLLIYYATGETDGVPSRFSGSGSGTDFTLTISSLQPEDFATYYCLQHGESPFTFGQGTKVEIK",16
16,"D3 library clone, CDR-L3 LQDGESPFT, I58F, N82aI, D95N (Fab, V domains shown, Changes against the D3 direct graft (Kabat): VL H91D; VH I58F, N82aI, D95N; copies: 1 + 1) VH: EVQLVESGGGLVQPGGSLRLSCAASGFNIKDYYMHWVRQAPGKGLEWVGWIDPENGNTFYDPKFQDRFTISADTSKNTAYLQMISLRAEDTAVYYCARNTAAYFDYWGQGTLVTVSS VL: DIQMTQSPSSLSASVGDRVTITCKASRDIKSYLSWYQQKPGKAPKLLIYYATSLADGVPSRFSGSGSGTDFTLTISSLQPEDFATYYCLQDGESPFTFGQGTKVEIK",8
17,"D3 library clone, CDR-L3 LQDGESPFT (Fab, V domains shown, Change against the D3 direct graft (Kabat): VL H91D; Siblings 5; copies: 1 + 1) VH: EVQLVESGGGLVQPGGSLRLSCAASGFNIKDYYMHWVRQAPGKGLEWVGWIDPENGNTIYDPKFQDRFTISADTSKNTAYLQMNSLRAEDTAVYYCARDTAAYFDYWGQGTLVTVSS VL: DIQMTQSPSSLSASVGDRVTITCKASRDIKSYLSWYQQKPGKAPKLLIYYATSLADGVPSRFSGSGSGTDFTLTISSLQPEDFATYYCLQDGESPFTFGQGTKVEIK",13
18,"D3 library clone, CDR-L2 DAIGLAD (Fab, V domains shown, Changes against the D3 direct graft (Kabat): VL Y50D, T52I, S53G; copies: 1 + 1) VH: EVQLVESGGGLVQPGGSLRLSCAASGFNIKDYYMHWVRQAPGKGLEWVGWIDPENGNTIYDPKFQDRFTISADTSKNTAYLQMNSLRAEDTAVYYCARDTAAYFDYWGQGTLVTVSS VL: DIQMTQSPSSLSASVGDRVTITCKASRDIKSYLSWYQQKPGKAPKLLIYDAIGLADGVPSRFSGSGSGTDFTLTISSLQPEDFATYYCLQHGESPFTFGQGTKVEIK",17
19,"D3 library clone, CDR-L2 YETGPTD (Fab, V domains shown, Changes against the D3 direct graft (Kabat): VL A51E, S53G, L54P, A55T; copies: 1 + 1) VH: EVQLVESGGGLVQPGGSLRLSCAASGFNIKDYYMHWVRQAPGKGLEWVGWIDPENGNTIYDPKFQDRFTISADTSKNTAYLQMNSLRAEDTAVYYCARDTAAYFDYWGQGTLVTVSS VL: DIQMTQSPSSLSASVGDRVTITCKASRDIKSYLSWYQQKPGKAPKLLIYYETGPTDGVPSRFSGSGSGTDFTLTISSLQPEDFATYYCLQHGESPFTFGQGTKVEIK",9
20,"D3 library clone, CDR-L2 YTAGPSD (Fab, V domains shown, Changes against the D3 direct graft (Kabat): VL A51T, T52A, S53G, L54P, A55S; copies: 1 + 1) VH: EVQLVESGGGLVQPGGSLRLSCAASGFNIKDYYMHWVRQAPGKGLEWVGWIDPENGNTIYDPKFQDRFTISADTSKNTAYLQMNSLRAEDTAVYYCARDTAAYFDYWGQGTLVTVSS VL: DIQMTQSPSSLSASVGDRVTITCKASRDIKSYLSWYQQKPGKAPKLLIYYTAGPSDGVPSRFSGSGSGTDFTLTISSLQPEDFATYYCLQHGESPFTFGQGTKVEIK",16
21,"D3 library clone, CDR-L2 YEPGLAD (Fab, V domains shown, Changes against the D3 direct graft (Kabat): VL A51E, T52P, S53G; copies: 1 + 1) VH: EVQLVESGGGLVQPGGSLRLSCAASGFNIKDYYMHWVRQAPGKGLEWVGWIDPENGNTIYDPKFQDRFTISADTSKNTAYLQMNSLRAEDTAVYYCARDTAAYFDYWGQGTLVTVSS VL: DIQMTQSPSSLSASVGDRVTITCKASRDIKSYLSWYQQKPGKAPKLLIYYEPGLADGVPSRFSGSGSGTDFTLTISSLQPEDFATYYCLQHGESPFTFGQGTKVEIK",7
22,"D3 library clone, CDR-L2 YESGPAD (Fab, V domains shown, Changes against the D3 direct graft (Kabat): VL A51E, T52S, S53G, L54P; Siblings 2; copies: 1 + 1) VH: EVQLVESGGGLVQPGGSLRLSCAASGFNIKDYYMHWVRQAPGKGLEWVGWIDPENGNTIYDPKFQDRFTISADTSKNTAYLQMNSLRAEDTAVYYCARDTAAYFDYWGQGTLVTVSS VL: DIQMTQSPSSLSASVGDRVTITCKASRDIKSYLSWYQQKPGKAPKLLIYYESGPADGVPSRFSGSGSGTDFTLTISSLQPEDFATYYCLQHGESPFTFGQGTKVEIK",8
